Assay results: patent US20100092465A1, “TREATMENT OF GRAFT-VERSUS-HOST DISEASE” (priority 2006, published 2010)
“And” between values parts separate entries of the source, which are not always exact repeats. Equal values may be shown once. Blank lines part the entries; values can stand above or below the substance they belong to.

Key:
[1] = biological target: single-chain mouse IL-27 (FLAG tag, mouse EBI3, 17 amino acid linker, mouse IL-27 p28) (mouse) (UniProt O35228); assay: SPR, BIACORE 3000; receptor captured by anti-mouse Fc antibody, ligand (lot A1418F) injected; 1:1 model with mass transport
[2] = biological target: single-chain mouse IL-27 (FLAG tag, mouse EBI3, 17 amino acid linker, mouse IL-27 p28) (mouse) (UniProt O35228); assay: cell-based or functional assay
[3] = biological target: single-chain human IL-27 (amino-terminal peptide tag, EBI3, polypeptide linker, IL-27 p28) (human) (UniProt Q14213); assay: cell-based or functional assay
[4] = biological target: single-chain mouse IL-27 (FLAG tag, mouse EBI3, 17 amino acid linker, mouse IL-27 p28) (mouse) (UniProt O35228); assay: SPR, BIACORE 3000; receptor amine-coupled to the chip, ligand (A1426F) injected; 1:1 model with mass transport
[5] = biological target: single-chain human IL-27 (amino-terminal peptide tag, EBI3, polypeptide linker, IL-27 p28) (human) (UniProt Q14213); assay: SPR, BIACORE 3000; receptor amine-coupled to the chip, ligand (A1534F) injected; 1:1 model with mass transport
[6] = biological target: IL-27 receptor on total human PBMCs (human) (UniProt Q6UWB1); assay: cell-based or functional assay
[7] = biological target: IL-27 receptor on mouse spleen cells (mouse) (UniProt O70394); assay: cell-based or functional assay
[8] = biological target: IL-27 receptor (IL-27RA and gp130) on BHK-mIL-27R cells (mouse) (UniProt O70394); assay: saturation binding of 125I-labeled ligand to BHK-mIL-27R cells, 4 hours on ice, gamma counter
[9] = biological target: IL-27 receptor (IL-27RA and gp130) on BHK-mIL-27R cells (mouse) (UniProt O70394); assay: saturation binding of 125I-labeled ligand to BHK-mIL-27R cells; average of three studies

Chain of IL-27 receptor on total human PBMCs (human) (Q6UWB1 33-636, chain 1 of 2): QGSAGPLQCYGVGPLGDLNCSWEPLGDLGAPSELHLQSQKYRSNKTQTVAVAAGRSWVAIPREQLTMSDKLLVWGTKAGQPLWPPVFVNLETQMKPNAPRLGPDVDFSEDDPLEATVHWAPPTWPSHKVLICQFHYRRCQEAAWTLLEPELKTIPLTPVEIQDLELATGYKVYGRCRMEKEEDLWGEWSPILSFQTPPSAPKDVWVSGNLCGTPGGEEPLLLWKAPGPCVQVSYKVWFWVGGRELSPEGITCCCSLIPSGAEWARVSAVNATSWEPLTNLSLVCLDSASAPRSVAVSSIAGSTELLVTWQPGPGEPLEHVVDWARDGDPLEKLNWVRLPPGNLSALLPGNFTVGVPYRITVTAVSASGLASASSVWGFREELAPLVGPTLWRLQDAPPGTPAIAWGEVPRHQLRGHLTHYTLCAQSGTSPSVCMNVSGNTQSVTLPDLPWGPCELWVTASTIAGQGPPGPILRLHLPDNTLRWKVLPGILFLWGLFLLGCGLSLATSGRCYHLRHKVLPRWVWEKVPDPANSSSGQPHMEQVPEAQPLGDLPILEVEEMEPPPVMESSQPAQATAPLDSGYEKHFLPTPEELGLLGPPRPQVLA
Chain of IL-27 receptor on total human PBMCs (human) (P40189 23-918, chain 2 of 2, further chain): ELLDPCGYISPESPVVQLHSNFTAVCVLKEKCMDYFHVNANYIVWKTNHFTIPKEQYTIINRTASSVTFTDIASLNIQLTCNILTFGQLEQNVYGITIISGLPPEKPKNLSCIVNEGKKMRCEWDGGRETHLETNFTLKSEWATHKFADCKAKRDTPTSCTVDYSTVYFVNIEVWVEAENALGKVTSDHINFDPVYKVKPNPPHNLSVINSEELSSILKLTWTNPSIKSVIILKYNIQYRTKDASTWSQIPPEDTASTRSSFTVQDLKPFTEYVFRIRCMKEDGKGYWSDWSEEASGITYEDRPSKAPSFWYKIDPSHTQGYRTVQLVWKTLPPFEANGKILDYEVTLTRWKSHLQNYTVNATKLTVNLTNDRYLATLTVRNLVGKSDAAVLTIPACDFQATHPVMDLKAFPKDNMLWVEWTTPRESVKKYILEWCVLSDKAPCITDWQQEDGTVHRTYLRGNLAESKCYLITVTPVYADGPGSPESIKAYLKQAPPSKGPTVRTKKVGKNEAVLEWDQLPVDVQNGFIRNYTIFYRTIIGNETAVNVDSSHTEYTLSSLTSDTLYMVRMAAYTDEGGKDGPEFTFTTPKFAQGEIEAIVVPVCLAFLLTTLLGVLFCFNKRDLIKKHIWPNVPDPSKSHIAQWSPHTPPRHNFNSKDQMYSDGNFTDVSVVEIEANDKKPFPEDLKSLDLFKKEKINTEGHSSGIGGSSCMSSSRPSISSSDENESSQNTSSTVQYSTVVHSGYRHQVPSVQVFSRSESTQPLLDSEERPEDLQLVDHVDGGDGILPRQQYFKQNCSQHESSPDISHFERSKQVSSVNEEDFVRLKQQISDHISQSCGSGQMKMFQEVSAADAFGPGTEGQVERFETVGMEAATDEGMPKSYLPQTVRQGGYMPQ
Chain of IL-27 receptor on mouse spleen cells (mouse) (O70394 25-623, chain 1 of 2): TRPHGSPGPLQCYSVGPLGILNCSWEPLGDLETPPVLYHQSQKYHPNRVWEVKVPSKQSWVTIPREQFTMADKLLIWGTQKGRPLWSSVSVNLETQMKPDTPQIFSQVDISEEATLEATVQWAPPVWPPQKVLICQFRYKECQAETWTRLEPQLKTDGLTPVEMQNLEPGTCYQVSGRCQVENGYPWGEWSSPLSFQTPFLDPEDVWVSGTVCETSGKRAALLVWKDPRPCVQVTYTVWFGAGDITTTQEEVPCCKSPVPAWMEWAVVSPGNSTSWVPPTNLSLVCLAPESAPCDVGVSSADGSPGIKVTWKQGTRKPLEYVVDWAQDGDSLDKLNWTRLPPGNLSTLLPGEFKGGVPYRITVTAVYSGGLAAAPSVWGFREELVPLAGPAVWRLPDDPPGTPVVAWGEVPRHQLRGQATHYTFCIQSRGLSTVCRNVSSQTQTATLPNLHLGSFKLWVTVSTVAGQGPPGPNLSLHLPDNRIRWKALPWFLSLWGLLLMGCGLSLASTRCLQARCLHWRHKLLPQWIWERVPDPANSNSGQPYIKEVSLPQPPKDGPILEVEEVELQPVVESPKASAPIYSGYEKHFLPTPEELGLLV
Chain of IL-27 receptor on mouse spleen cells (mouse) (Q00560 23-917, chain 2 of 2, further chain): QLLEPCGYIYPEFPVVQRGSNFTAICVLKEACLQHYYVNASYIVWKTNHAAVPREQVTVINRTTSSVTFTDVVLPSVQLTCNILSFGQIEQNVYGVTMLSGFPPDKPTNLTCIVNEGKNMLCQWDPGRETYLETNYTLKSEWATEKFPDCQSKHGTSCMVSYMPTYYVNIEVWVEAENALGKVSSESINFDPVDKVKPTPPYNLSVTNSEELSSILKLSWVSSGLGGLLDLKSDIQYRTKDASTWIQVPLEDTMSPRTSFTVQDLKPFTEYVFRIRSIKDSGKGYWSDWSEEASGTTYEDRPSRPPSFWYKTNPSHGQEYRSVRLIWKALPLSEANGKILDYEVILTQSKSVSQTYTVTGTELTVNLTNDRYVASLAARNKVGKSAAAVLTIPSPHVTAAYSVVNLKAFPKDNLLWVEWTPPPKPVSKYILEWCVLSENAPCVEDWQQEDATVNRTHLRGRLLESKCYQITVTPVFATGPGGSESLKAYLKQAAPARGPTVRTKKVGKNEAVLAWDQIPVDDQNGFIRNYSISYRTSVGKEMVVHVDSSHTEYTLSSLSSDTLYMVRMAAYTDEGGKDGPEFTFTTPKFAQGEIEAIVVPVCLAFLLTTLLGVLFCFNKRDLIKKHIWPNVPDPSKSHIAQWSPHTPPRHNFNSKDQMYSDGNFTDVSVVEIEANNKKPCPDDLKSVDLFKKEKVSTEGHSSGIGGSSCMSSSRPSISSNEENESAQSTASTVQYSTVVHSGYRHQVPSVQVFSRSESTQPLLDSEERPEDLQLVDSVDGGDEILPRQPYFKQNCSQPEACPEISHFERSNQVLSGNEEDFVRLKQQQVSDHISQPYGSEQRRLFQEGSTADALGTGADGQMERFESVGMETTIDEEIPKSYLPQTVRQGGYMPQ

koff [1]: 0.0012 s⁻¹ | kon [1]: 1e+07 M⁻¹ s⁻¹ | IC50 (nM), phospho-STAT3 in mouse spleens, ligand at EC90 [2]: 0.18 nM | IC50 (nM), phospho-STAT3 in total human PBMCs, ligand at EC90 [2]: 4.83 nM | IL-2 concentration, 48 hr, mIL-27RA 5 ug/ml + IL-27 [2]: 4020 pg/mL | IL-2 concentration, 48 hr, mIL-27RA 10 ug/ml + IL-27 [2]: 5220 pg/mL | IL-2 concentration, 48 hr, mIL-27RA 10 ug/ml + IL-27 (second row) [2]: 4920 pg/mL | IL-2 concentration, 72 hr, mIL-27RA 5 ug/ml + IL-27 [2]: 5740 pg/mL | IL-2 concentration, 72 hr, mIL-27RA 10 ug/ml + IL-27 [2]: 6700 pg/mL | IL-2 concentration, 72 hr, mIL-27RA 10 ug/ml + IL-27 (second row) [2]: 12200 pg/mL | block of the ability of mouse IL-27 to inhibit IL-2 production by naive CD4 T cells [2]: 50% | IC50 (nM), phospho-STAT3 in mouse spleens, ligand at EC90 [3]: 9.3 nM | IC50 (nM), phospho-STAT3 in total human PBMCs, ligand at EC90 [3]: 1370 nM
Substance: IL27RAm(mFc1): extracellular domain of mouse IL27RA fused to a wild type BALB/c mouse gamma2a constant region Fc tag (from UniProt O70394 25-510) (Fc fusion)

IC50 (nM), phospho-STAT3 in mouse spleens, ligand at EC90 [2]: 0.14 nM | IC50 (nM), phospho-STAT3 in total human PBMCs, ligand at EC90 [2]: 2.97 nM | IL-2 concentration, 48 hr, hIL-27RA 5 ug/ml + IL-27 [2]: 5780 pg/mL | IL-2 concentration, 48 hr, hIL-27RA 10 ug/ml + IL-27 [2]: 5770 pg/mL | IL-2 concentration, 48 hr, hIL-27RA 10 ug/ml + IL-27 (second row) [2]: 5330 pg/mL | IL-2 concentration, 72 hr, hIL-27RA 5 ug/ml + IL-27 [2]: 1870 pg/mL | IL-2 concentration, 72 hr, hIL-27RA 10 ug/ml + IL-27 [2]: 28600 pg/mL | IL-2 concentration, 72 hr, hIL-27RA 10 ug/ml + IL-27 (second row) [2]: 17500 pg/mL | block of the ability of mouse IL-27 to inhibit IL-2 production by naive CD4 T cells [2]: 50% | IC50 (nM), phospho-STAT3 in mouse spleens, ligand at EC90 [3]: 0.32 nM | IC50 (nM), phospho-STAT3 in total human PBMCs, ligand at EC90 [3]: 0.95 nM | koff [4]: 0.0018 s⁻¹ | kon [4]: 8.1e+06 M⁻¹ s⁻¹ | koff [5]: 0.0019 s⁻¹ | kon [5]: 1e+07 M⁻¹ s⁻¹
Substance: human IL27RA-Fc5 fusion protein (Fc fusion)

EC90 concentration, STAT3 phosphorylation (BIO-PLEX Phospho-Stat3 assay), total human PBMCs [6]: 2 nM | EC90 concentration, STAT3 phosphorylation (BIO-PLEX Phospho-Stat3 assay), mouse spleens [7]: 2 nM
Substance: single-chain human IL-27 (amino-terminal peptide tag, EBI3, polypeptide linker, IL-27 p28) (from UniProt Q14213 21-229; Q8NEV9 29-243) (ligand)

EC90 concentration, STAT3 phosphorylation (BIO-PLEX Phospho-Stat3 assay), total human PBMCs [6]: 2 nM | EC90 concentration, STAT3 phosphorylation (BIO-PLEX Phospho-Stat3 assay), mouse spleens [7]: 0.2 nM | Kd [8]: 0.9 nM and 1.35 nM and 1.16 nM | Kd [9]: 1.14 nM
Substance: single-chain mouse IL-27 (FLAG tag, mouse EBI3, 17 amino acid linker, mouse IL-27 p28) (from UniProt O35228 19-228; Q8K3I6 29-234) (ligand)
